As a reminder, the Kd is the free concentration of one partner at which half of the binding sites on the other are occupied at equilibrium, for simple one-to-one binding.

The target in series [1] is T1, KAE1;BUD32;CGI121;PCC1 R70D/R73D/A74E (Arabidopsis thaliana;Arabidopsis …, UniProt O49653;Q94K14;Q6NMZ4;Q8GWD7 1-353;1-226;1-172;1-96, |||R70D;R73D;A74E).
T1 sequence 1: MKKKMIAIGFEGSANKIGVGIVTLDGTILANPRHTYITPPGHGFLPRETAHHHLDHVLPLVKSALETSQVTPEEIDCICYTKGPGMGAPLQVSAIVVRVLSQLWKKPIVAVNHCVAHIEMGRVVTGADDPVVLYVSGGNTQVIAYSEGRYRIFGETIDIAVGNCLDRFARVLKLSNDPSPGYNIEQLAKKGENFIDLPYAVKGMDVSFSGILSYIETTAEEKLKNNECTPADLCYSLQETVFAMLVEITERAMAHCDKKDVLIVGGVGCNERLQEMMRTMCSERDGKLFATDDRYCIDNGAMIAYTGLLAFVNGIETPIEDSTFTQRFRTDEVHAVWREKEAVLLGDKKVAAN
T1 sequence 2: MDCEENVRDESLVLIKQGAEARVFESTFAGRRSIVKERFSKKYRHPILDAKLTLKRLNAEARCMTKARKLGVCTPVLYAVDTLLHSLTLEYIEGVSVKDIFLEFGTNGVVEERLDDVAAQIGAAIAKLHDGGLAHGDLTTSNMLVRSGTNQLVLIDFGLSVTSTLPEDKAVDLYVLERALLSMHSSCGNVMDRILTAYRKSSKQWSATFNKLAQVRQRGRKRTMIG
T1 sequence 3: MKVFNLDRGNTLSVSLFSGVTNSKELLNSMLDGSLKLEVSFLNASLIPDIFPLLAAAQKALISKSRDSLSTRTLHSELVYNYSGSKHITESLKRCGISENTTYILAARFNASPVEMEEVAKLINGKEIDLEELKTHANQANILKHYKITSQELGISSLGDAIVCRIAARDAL
T1 sequence 4: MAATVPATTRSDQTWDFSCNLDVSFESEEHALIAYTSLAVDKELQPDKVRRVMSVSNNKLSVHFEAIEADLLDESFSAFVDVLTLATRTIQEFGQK
Put plainly: MST; KEOPS monomer; MST: 20 mM PBS pH 7.5, 300 mM NaCl, 0.05% Tween 20, 25 C, 50 nM RNA; EMSA: 20 mM Tris-HCl pH 7.5, 300 mM NaCl, 5 mM b-mercaptoethanol, 20% glycerol, agarose gel in Tris-glycine pH 8.0 (8.5 for FAM-RNA), 4 C. The following applies: protein: recombinant;recombinant;recombinant;recombinant; tags: none (6His on partner PCC1);none (6His on partner CGI121);6His (C-term);6His (C-term); chain copies: 2;2;2;2; label: 5' 6-FAM; tRNA cloverleaf. (In general: In EMSA bound probe runs differently from free probe, usually more slowly.)

Series [2] addresses T2, KAE1 A231G;BUD32;CGI121;PCC1 (Arabidopsis thaliana;Arabidopsis …, UniProt O49653;Q94K14;Q6NMZ4;Q8GWD7 1-353;1-226;1-172;1-96, A231G|||).
T2 sequence 1: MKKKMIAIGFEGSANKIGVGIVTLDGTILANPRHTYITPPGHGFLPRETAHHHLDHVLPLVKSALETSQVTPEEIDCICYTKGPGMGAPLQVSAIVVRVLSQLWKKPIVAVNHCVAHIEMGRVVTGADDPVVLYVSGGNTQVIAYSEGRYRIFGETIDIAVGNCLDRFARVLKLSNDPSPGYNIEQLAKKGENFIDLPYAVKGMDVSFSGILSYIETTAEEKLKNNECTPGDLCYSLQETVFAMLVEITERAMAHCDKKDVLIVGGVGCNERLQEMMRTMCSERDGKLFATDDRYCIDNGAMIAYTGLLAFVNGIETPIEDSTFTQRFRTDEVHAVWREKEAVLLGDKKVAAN
T2 sequence 2: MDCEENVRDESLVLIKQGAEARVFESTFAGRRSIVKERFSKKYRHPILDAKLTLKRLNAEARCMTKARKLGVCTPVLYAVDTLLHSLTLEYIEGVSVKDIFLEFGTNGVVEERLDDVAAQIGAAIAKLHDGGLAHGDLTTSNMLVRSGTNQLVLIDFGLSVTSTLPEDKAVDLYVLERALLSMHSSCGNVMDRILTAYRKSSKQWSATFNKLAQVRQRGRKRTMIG
T2 sequence 3: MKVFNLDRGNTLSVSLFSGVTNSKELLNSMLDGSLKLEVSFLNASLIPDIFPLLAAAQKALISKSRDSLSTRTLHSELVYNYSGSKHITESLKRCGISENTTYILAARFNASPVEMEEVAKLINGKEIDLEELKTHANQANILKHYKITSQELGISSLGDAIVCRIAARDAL
T2 sequence 4: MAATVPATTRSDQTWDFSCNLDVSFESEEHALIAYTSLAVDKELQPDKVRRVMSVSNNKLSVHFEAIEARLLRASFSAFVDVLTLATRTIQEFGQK
Put plainly: EMSA; 1:5 RNA:protein; MST: 20 mM PBS pH 7.5, 300 mM NaCl, 0.05% Tween 20, 25 C, 50 nM RNA; EMSA: 20 mM Tris-HCl pH 7.5, 300 mM NaCl, 5 mM b-mercaptoethanol, 20% glycerol, agarose gel in Tris-glycine pH 8.0 (8.5 for FAM-RNA), 4 C. The following applies: protein: recombinant;recombinant;recombinant;recombinant; tags: ;none (6His on partner CGI121);6His (C-term);6His (C-term); chain copies: 2;2;2;2; label: 5' 6-FAM; tRNA cloverleaf.

For series [3], the target named is T3, KAE1 D298R;BUD32;CGI121;PCC1 (Arabidopsis thaliana;Arabidopsis …, UniProt O49653;Q94K14;Q6NMZ4;Q8GWD7 1-353;1-226;1-172;1-96, D298R|||).
T3 sequence 1: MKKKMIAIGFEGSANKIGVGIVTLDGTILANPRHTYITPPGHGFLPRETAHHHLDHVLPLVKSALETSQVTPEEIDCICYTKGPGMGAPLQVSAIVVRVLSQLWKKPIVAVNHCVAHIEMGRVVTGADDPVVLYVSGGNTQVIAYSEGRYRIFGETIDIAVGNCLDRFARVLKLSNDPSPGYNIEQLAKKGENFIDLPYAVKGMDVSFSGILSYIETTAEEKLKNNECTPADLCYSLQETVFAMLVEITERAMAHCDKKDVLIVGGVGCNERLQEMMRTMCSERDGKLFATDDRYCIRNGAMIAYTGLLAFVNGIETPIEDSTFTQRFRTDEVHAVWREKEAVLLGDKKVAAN
T3 sequence 2: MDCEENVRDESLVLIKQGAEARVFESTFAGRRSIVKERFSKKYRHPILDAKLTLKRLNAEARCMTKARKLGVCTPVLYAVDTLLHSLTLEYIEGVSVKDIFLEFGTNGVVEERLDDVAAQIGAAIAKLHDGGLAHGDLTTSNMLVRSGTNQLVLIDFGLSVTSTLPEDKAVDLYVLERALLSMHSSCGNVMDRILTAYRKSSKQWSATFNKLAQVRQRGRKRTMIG
T3 sequence 3: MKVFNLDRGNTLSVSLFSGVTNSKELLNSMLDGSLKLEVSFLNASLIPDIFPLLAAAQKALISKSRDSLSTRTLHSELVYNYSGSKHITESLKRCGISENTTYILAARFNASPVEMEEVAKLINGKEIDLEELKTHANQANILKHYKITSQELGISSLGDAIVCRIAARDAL
T3 sequence 4: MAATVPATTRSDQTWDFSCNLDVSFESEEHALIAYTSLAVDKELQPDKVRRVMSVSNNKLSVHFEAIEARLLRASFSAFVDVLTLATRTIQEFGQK
Described as above. The following applies: protein: recombinant;recombinant;recombinant;recombinant; tags: ;none (6His on partner CGI121);6His (C-term);6His (C-term); chain copies: 2;2;2;2; label: 5' 6-FAM; tRNA cloverleaf.

B1: 5'-6FAM-tRNAArgCCU (structured_RNA)
RNA: GCGCCUGUAGCUCAGUGGAUAGAGCGUCUGUUUCCUAAGCAGAAGGUCGUAGGUUCGACCCCUACCUGGCGCGCCA
As to B1, the Kd in series [1] was found to be 74.4 ± 13.5 µM. The binding result in series [2] and in series [3] was “binds” each time.

These data come from paper PMC11077089, “Molecular basis of A. thaliana KEOPS complex in biosynthesizing tRNA t6A”.
